B1: DNJ-13 (natural protein)
chain: not shown
notes: DNJ-13, cytosolic Hsp40-like J domain protein of C. elegans; cDNA in pET28b after the N-terminal His6 tag; called full-length in the results; also called full-length DNJ-13; DNJ-13 dimer; source: E. coli BL21-CodonPlus(DE3)RIL, purified (HisTrap FF, ResourceS ion exchange, Superdex 75 SEC)
B2: Labeled CDC-37 (*CDC-37) (natural protein, nematode, UniProt O02108 1-370, looked up)
chain: MPIDYSKWKDIEVSDDEDDTHPNIDTPSLFRWRHQARLERMAEKKMEQEKIDKEKGTTSKKMEELEKKLAAADVTDKSDIQKQIDEVKAQEEAWRKKEAELEEKERLEPWNVDTIGHEAFSTSRINKITEKKPQAPKTDEEDTHAMSTFFETHESLLEKMAVLKNGAKSTELFLAEHPHMASEYTANWLTIEALNAAIDFNEEKMKTMAEQCIIIQYLLELSKSLNAVATNTTVQKQFFKKFEAAEPVYMKHYQDEVKAFEDRLRTRAQTKRDAAMEEAEAEEKAERMKSAPGGIDPQEVFEQLPEEMRKCFEAHDIEALKGVAQKMDEEVFKYHFDRCIASGLWVPGKADDDDDDEEAAPAEEEPTTSS
modifications: ATTO 488 C5-maleimide at its cysteine residues
notes: CDC-37, kinase-specific Hsp90 cofactor of nematodes; same protein as m1, labeled at cysteines; The methods name ATTO 488 C5-maleimide, the results call the label AlexaFluor 488; also called fluorescently labeled CDC-37; AlexaFluor 488-labeled CDC-37
B3: CDC-37 (natural protein, nematode, UniProt O02108 1-370, looked up)
chain: B2 chain
notes: CDC-37, kinase-specific Hsp90 cofactor of nematodes; cDNA in pET28b after the N-terminal His6 tag; called full-length in the results; Cleavage of the His6 tag is not mentioned; also called full-length CDC-37; FL; source: E. coli BL21-CodonPlus(DE3)RIL, purified (HisTrap FF, ResourceS ion exchange, Superdex 75 SEC)

Assays:
[1] = molecular target: the molecule itself; test: cross-linking; isotope labeled BS3-H12/D12 and DSSG-H6/D6; 16 µM DNJ-13 and 16 µM CDC-37; bands cut from SDS-PAGE, tryptic digest, nanoLC-ESI-MS/MS; crosslinks identified with xMASS and pLink2.0
Labeled CDC-37 (*CDC-37) = molecular target: B2; test: AUC; fluorescence AUC titration, 100 nM *CDC-37 with 0-10 µM DNJ-13; sedimentation coefficients against DNJ-13 concentration fitted with a Michaelis-Menten function; approximate KD; conditions: both partners purified
Sequence of DNJ-13 (Q20774 entry or part of it): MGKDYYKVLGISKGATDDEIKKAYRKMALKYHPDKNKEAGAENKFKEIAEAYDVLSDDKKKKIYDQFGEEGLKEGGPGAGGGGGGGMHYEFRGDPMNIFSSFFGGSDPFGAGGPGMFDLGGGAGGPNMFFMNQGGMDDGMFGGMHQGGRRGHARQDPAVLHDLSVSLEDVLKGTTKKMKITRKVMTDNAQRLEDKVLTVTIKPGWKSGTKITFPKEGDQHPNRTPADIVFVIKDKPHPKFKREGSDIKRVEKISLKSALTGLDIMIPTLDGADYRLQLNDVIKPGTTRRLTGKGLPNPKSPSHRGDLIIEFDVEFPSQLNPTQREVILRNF

HSP-90 = molecular target: T1, HSP-90 (nematode, UniProt Q18688 1-702); test: AUC; sedimentation velocity with fluorescence detection; 300 nM *CDC-37 with or without 2 µM binding partners; 42,000 rpm, 20 °C; 40 mM HEPES/KOH pH 7.5, 20 mM KCl, 1 mM DTT, 5 mM MgCl2; with and without ATPγS for HSP-90; conditions: both partners purified
T1 construct: HSP-90 of nematodes, the chaperone for which CDC-37 acts as co-chaperone; the construct is not described

DNJ-13 = molecular target: B1; test: AUC; sedimentation velocity with UV/Vis absorbance, non-labeled proteins, 0.5 mg/ml protein; 10 µM DNJ-13 with substoichiometric, equal or excess CDC-37; 2DSA analysis in UltraScan III; conditions: both partners purified

Binder: B1
stoichiometry N [1]: 2
Kd (Labeled CDC-37 (*CDC-37)): ~3000 nM

Binder: B2
binding result (HSP-90): binds

Binder: B3
stoichiometry N (DNJ-13): 1 CDC-37 per DNJ-13 dimer
